Columns and labels:
[1] = target: FNIP1-D–His6 labelled with Texas Red Maleimide (UniProt Q8TF40); assay: fluorescence polarisation; fluorescence anisotropy; 1 μM Texas Red-labelled FNIP1-D, Hsp90α titrated; 50 mM Tris pH 7.2, 150 mM NaCl, 1 mM TCEP, 4 mM MgCl2, with or without 1 mM ATP, ADP or AMPPNP; single-site binding equation
[2] = target: Hsp90α–FLAG full-length (wild type) (human) (UniProt P07900)
[3] = target: T1, FLAG–FNIP1 (bacterially expressed and purified) (UniProt Q8TF40 1-1166); assay: pull-down; His6-tagged protein bound to Ni-NTA agarose, incubated with 10 ng pure FLAG–FNIP1; immunoblot; conditions: both partners purified
T1 construct: FNIP1; bacterial expression from pRSET-A; also called recombinant FNIP1; source: bacterially expressed and purified (a small amount)
T1 sequence (looked up): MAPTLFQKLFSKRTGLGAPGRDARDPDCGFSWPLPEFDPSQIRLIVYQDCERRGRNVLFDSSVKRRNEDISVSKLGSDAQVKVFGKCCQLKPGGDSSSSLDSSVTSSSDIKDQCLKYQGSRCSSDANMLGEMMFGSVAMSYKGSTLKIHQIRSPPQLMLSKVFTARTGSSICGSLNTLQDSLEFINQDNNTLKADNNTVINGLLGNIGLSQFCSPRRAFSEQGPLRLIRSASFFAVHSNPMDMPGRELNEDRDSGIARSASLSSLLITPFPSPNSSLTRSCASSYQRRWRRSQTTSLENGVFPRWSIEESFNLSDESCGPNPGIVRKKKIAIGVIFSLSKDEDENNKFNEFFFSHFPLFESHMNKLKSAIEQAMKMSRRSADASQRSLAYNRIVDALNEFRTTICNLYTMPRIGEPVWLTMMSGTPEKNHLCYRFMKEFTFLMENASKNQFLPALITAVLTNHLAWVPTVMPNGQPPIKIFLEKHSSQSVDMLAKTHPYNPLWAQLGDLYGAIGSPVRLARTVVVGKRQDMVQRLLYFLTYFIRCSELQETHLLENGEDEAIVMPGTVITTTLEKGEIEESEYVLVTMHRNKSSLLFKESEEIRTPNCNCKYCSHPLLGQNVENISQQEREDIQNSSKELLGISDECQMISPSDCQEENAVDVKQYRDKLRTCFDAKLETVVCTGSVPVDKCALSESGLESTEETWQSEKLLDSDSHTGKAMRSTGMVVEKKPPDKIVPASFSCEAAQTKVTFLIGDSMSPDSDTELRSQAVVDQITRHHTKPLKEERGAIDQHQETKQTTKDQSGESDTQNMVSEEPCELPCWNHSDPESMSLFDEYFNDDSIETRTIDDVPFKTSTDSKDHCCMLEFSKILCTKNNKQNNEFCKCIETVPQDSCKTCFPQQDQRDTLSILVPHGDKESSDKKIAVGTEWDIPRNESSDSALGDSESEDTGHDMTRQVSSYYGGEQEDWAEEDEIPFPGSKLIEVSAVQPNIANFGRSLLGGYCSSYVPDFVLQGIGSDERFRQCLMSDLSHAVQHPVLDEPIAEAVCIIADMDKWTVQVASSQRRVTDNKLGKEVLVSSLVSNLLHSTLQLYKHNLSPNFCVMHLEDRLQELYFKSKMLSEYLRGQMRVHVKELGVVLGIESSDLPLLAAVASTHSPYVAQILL

Question: “Hsp90α–His6 (from UniProt P07900 1-732) (natural protein)” was tested. Which Kd [1] did it give?
Answer: 1300 nM

B1: HA–FNIP1 (natural protein)
chain: MAPTLFQKLFSKRTGLGAPGRDARDPDCGFSWPLPEFDPSQIRLIVYQDCERRGRNVLFDSSVKRRNEDISVSKLGSDAQVKVFGKCCQLKPGGDSSSSLDSSVTSSSDIKDQCLKYQGSRCSSDANMLGEMMFGSVAMSYKGSTLKIHQIRSPPQLMLSKVFTARTGSSICGSLNTLQDSLEFINQDNNTLKADNNTVINGLLGNIGLSQFCSPRRAFSEQGPLRLIRSASFFAVHSNPMDMPGRELNEDRDSGIARSASLSSLLITPFPSPNSSLTRSCASSYQRRWRRSQTTSLENGVFPRWSIEESFNLSDESCGPNPGIVRKKKIAIGVIFSLSKDEDENNKFNEFFFSHFPLFESHMNKLKSAIEQAMKMSRRSADASQRSLAYNRIVDALNEFRTTICNLYTMPRIGEPVWLTMMSGTPEKNHLCYRFMKEFTFLMENASKNQFLPALITAVLTNHLAWVPTVMPNGQPPIKIFLEKHSSQSVDMLAKTHPYNPLWAQLGDLYGAIGSPVRLARTVVVGKRQDMVQRLLYFLTYFIRCSELQETHLLENGEDEAIVMPGTVITTTLEKGEIEESEYVLVTMHRNKSSLLFKESEEIRTPNCNCKYCSHPLLGQNVENISQQEREDIQNSSKELLGISDECQMISPSDCQEENAVDVKQYRDKLRTCFDAKLETVVCTGSVPVDKCALSESGLESTEETWQSEKLLDSDSHTGKAMRSTGMVVEKKPPDKIVPASFSCEAAQTKVTFLIGDSMSPDSDTELRSQAVVDQITRHHTKPLKEERGAIDQHQETKQTTKDQSGESDTQNMVSEEPCELPCWNHSDPESMSLFDEYFNDDSIETRTIDDVPFKTSTDSKDHCCMLEFSKILCTKNNKQNNEFCKCIETVPQDSCKTCFPQQDQRDTLSILVPHGDKESSDKKIAVGTEWDIPRNESSDSALGDSESEDTGHDMTRQVSSYYGGEQEDWAEEDEIPFPGSKLIEVSAVQPNIANFGRSLLGGYCSSYVPDFVLQGIGSDERFRQCLMSDLSHAVQHPVLDEPIAEAVCIIADMDKWTVQVASSQRRVTDNKLGKEVLVSSLVSNLLHSTLQLYKHNLSPNFCVMHLEDRLQELYFKSKMLSEYLRGQMRVHVKELGVVLGIESSDLPLLAAVASTHSPYVAQILL
Question: How did the inhibition of the in vitro ATPase activity of isolated Hsp90α (PiPer Phosphate Assay; Hsp90α 291.5 nM) by 200 nM FNIP1 (189.8 nM in the results) [2] turn out when B1 was run?
Answer: 50 fold

B2: HA–FNIP2 (natural protein)
chain: MAPTLLQKLFNKRGSSGSSAAASAQGRAPKEGPAFSWSCSEFDLNEIRLIVYQDCDRRGRQVLFDSKAVQKIEEVTAQKTEDVPIKISAKCCQGSSSVSSSSSSSISSHSSSGGSSHHAKEQLPKYQYTRPASDVNMLGEMMFGSVAMSYKGSTLKIHYIRSPPQLMISKVFSARMGSFCGSTNNLQDSFEYINQDPNLGKLNTNQNSLGPCRTGSNLAHSTPVDMPSRGQNEDRDSGIARSASLSSLLITPFPSPSSSTSSSSSYQRRWLRSQTTSLENGIIPRRSTDETFSLAEETCSSNPAMVRRKKIAISIIFSLCEKEEAQRNFQDFFFSHFPLFESHMNRLKSAIEKAMISCRKIAESSLRVQFYVSRLMEALGEFRGTIWNLYSVPRIAEPVWLTMMSGTLEKNQLCQRFLKEFTLLIEQINKNQFFAALLTAVLTYHLAWVPTVMPVDHPPIKAFSEKRTSQSVNMLAKTHPYNPLWAQLGDLYGAIGSPVRLTRTVVVGKQKDLVQRILYVLTYFLRCSELQENQLTWSGNHGEGDQVLNGSKIITALEKGEVEESEYVVITVRNEPALVPPILPPTAAERHNPWPTGFPECPEGTDSRDLGLKPDKEANRRPEQGSEACSAGCLGPASDASWKPQNAFCGDEKNKEAPQDGSSRLPSCEVLGAGMKMDQQAVCELLKVEMPTRLPDRSVAWPCPDRHLREKPSLEKVTFQIGSFASPESDFESRMKKMEERVKACGPSLEASEAADVAQDPQVSRSPFKPGFQENVCCPQNRLSEGDEGESDKGFAEDRGSRNDMAADIAGQLSHAADLGTASHGAGGTGGRRLEATRGLYVKAAEGPVLEPVAPRCVQRGPGLVAGANIPCGDDNKKANFRTEGDIPRNESSDSALGDSDDEACASAMLDLGHGGDRTGGSLEVELPLPRSQSISTQNVRNFGRSLLAGYCPTYMPDLVLHGTGSDEKLKQCLVADLVHTVHHPVLDEPIAEAVCIIADTDKWSVQVATSQRKVTDNMKLGQDVLVSSQVSSLLQSILQLYKLHLPADFCIMHLEDRLQEMYLKSKMLSEYLRGHTRVHVKELGVVLGIESNDLPLLTAIASTHSPYVAQILL
Question: Which inhibition of the in vitro ATPase activity of isolated Hsp90α (PiPer Phosphate Assay; Hsp90α 291.5 nM) by 1.6 μM FNIP2 [2] does the source give for B2 here?
Answer: 8 fold

B3: FLCN–His6 (natural protein, UniProt Q8NFG4 1-579, looked up)
chain: MNAIVALCHFCELHGPRTLFCTEVLHAPLPQGDGNEDSPGQGEQAEEEEGGIQMNSRMRAHSPAEGASVESSSPGPKKSDMCEGCRSLAAGHPGYISHDKETSIKYVSHQHPSHPQLFSIVRQACVRSLSCEVCPGREGPIFFGDEQHGFVFSHTFFIKDSLARGFQRWYSIITIMMDRIYLINSWPFLLGKVRGIIDELQGKALKVFEAEQFGCPQRAQRMNTAFTPFLHQRNGNAARSLTSLTSDDNLWACLHTSFAWLLKACGSRLTEKLLEGAPTEDTLVQMEKLADLEEESESWDNSEAEEEEKAPVLPESTEGRELTQGPAESSSLSGCGSWQPRKLPVFKSLRHMRQVLGAPSFRMLAWHVLMGNQVIWKSRDVDLVQSAFEVLRTMLPVGCVRIIPYSSQYEEAYRCNFLGLSPHVQIPPHVLSSEFAVIVEVHAAARSTLHPVGCEDDQSLSKYEFVVTSGSPVAADRVGPTILNKIEAALTNQNLSVDVVDQCLVCLKEEWMNKVKVLFKFTKVDSRPKEDTQKLLSILGASEEDNVKLLKFWMTGLSKTYKSHLMSTVRSPTASESRN
notes: folliculin (FLCN), bacterially expressed; The name puts His6 behind the protein; source: bacterially expressed and purified; not shown: His6, N-terminal, kept
Question: Does B3 bind [3]?
Answer: binds
